Values quoted from earlier work in PMC5245780.

Biological target: Hax1 isoform 1 (Rattus norvegicus) (UniProt Q7TSE9)

Hax1 isoform 1 (from UniProt Q7TSE9)
Kd: 3.8 nM
